Assay results as given in patent US20130123350, “NUCLEIC ACID MOLECULE CAPABLE OF BINDING TO c-MET AND USE THEREOF” (KANAGAWA PREFECTURAL HOSPITAL ORGANIZATION, published 2013).

What was measured:
[1] = molecular target: rec-NGFR (Recombinant Human NGF R/TNFRSF16/Fc Chimera) (Homo sapiens, UniProt P08138 SEQ:1-222); assay: ELONA; signal below 40N; details: tags: C-terminal DIEGRMD linker, human IgG Fc (100-330), 6xHis; R&D Systems; chain copies: 2 (inferred, Fc chimera)
Method: Next, a 20-mer polyadenine (poly A) was added to the 3′ end of each of the RNA aptamers. Thus, poly-A-added RNA aptamers were prepared. Each of the poly-A-added RNA aptamers was denatured, and thereafter, the denatured poly-A-added RNA aptamer was mixed with a 20-mer biotinylated polythymine with its 5′ end being biotinylated (740 nmol/L), tRNA (100 μg/mL), and an RNase inhibitor (0.16 units/mL). As a result, complementary binding occurred between the poly A in the poly-A-added RNA aptamer and the polythymine (poly T) in the biotinylated polythymine, whereby a biotin-labeled RNA aptamer was produced. The biotin-labeled RNA aptamer was added to the plate, and the plate was incubated at 4° C. for 30 minutes. Subsequently, the plate was washed, and 0.1 μg/mL HRP-streptavidin (Thermo Fisher Scientific Inc., USA) was added thereto. The plate was then washed, after which a 1-Step Ultra TMB substrate (Thermo Fisher Scientific Inc., USA) was added to the plate to cause color development, and the absorbance at 450 nm was measured.
The binding ability of each of the RNA aptamers to the rec-NGFR was examined in the same manner as in Example 1, except that the rec-NGFR was bound to the plate. Also, as a comparative example, the 40N was used, and the binding ability thereof was examined in the same manner.

[2] = molecular target: T1, rec-cMet (Recombinant Human HGF R/c-MET/Fc Chimera) (Homo sapiens, UniProt P08581;P08581 SEQ:1-283,SEQ:1-625); assay: ELONA; highest binding; Table 2 misnumbers as SEQ 46; also SPR FIG. 11; details: tags: C-terminal HIEGRMD linker, human IgG Fc (100-330), 6xHis; R&D Systems; chain copies: 2 (inferred, Fc chimera)
Method: (§1) An anti-IgG antibody (trade name: “Human IgG-Fc Antibody”, Bethyl Laboratories) was adsorbed on a 96-well plate (Iwaki, AGC Techno Glass Co., Ltd., Japan), and then was subjected to blocking using 1% bovine serum albumin. Subsequently, 50 μL of the 1 μg/mL rec-cMet was added to the plate. Further, Tris (20 mmol/L), sodium chloride (100 mmol/L), magnesium acetate (0.1 mmol/L) and Triton (registered trademark)-X100 (0.2%) were added to the plate so that their final concentrations would be as shown in the parentheses. The plate was incubated at room temperature for 3 hours, thus causing the rec-cMet to bind to the plate. After the incubation, the plate was washed three times with a washing solution. The composition of the washing solution was as follows: 20 mmol/L Tris, 100 mmol/L sodium chloride, 0.1 mmol/L magnesium acetate, and 0.2% Triton (registered trademark)-X100. As a control, incubation and washing were carried out in the same manner, except that 50 μL of the washing solution was added instead of 50 μL of the rec-cMet.
(§2) Next, a 20-mer polyadenine (poly A) was added to the 3′ end of each of the RNA aptamers. Thus, poly-A-added RNA aptamers were prepared. […] The plate was then washed, after which a 1-Step Ultra TMB substrate (Thermo Fisher Scientific Inc., USA) was added to the plate to cause color development, and the absorbance at 450 nm was measured.

[3] = molecular target: T1, rec-cMet (Recombinant Human HGF …); assay: ELONA; high binding; Table 2 misnumbers as SEQ 47; also SPR FIG. 11; details: tags: C-terminal HIEGRMD linker, human IgG Fc (100-330), 6xHis; R&D Systems; chain copies: 2 (inferred, Fc chimera)
Method: as §1, §2

[4] = molecular target: T1, rec-cMet (Recombinant Human HGF …); assay: ELONA; Table 2 misnumbers as SEQ 48; also SPR FIG. 11; details: tags: C-terminal HIEGRMD linker, human IgG Fc (100-330), 6xHis; R&D Systems; chain copies: 2 (inferred, Fc chimera)
Method: as §1, §2

[5] = molecular target: T1, rec-cMet (Recombinant Human HGF …); assay: ELONA; high binding; 3' polyA20 hybridised to biotin-polyT; 20 mM Tris, 100 mM NaCl, 0.1 mM Mg acetate, 4 C; also SPR FIG. 11; details: tags: C-terminal HIEGRMD linker, human IgG Fc (100-330), 6xHis; R&D Systems; chain copies: 2 (inferred, Fc chimera)
Method: as §1, §2

[6] = molecular target: T1, rec-cMet (Recombinant Human HGF …); assay: SPR; best fluorinated binder; rec-cMet 60 nM; details: tags: C-terminal HIEGRMD linker, human IgG Fc (100-330), 6xHis; R&D Systems; chain copies: 2 (inferred, Fc chimera)
Excerpt: The binding ability of each of the RNA aptamers to the rec-cMet was examined in the same manner as in Example 5, except that the fluorinated RNA aptamers were used. The concentration of the rec-cMet was set to 60 nmol/L. With the time point at which the introduction of the rec-cMet to the chip was started being 0 seconds, introduction of a buffer was started 60 seconds later. As a comparative example, the same negative control as in Example 6 was used.
FIG. 12 is a graph showing the binding ability of each of the RNA aptamers to the rec-cMet. In FIG. 12, the vertical axis indicates the signal intensity (RU) measured with BIACORE (registered trademark) X. The signal intensity shown in the graph is a value measured at the 60th second when the buffer was introduced. […] By fluorination, these RNA aptamers had acquired RNase resistance and they also maintained the bonding force to the c-Met. Thus, it can be seen that these fluorinated RNA aptamers are particularly suitable for use in vivo and in vitro. All the RNA aptamers maintained equivalent signal values subsequent to the 60th second. Thus, it was confirmed that no decrease in binding ability occurred.

[7] = molecular target: T1, rec-cMet (Recombinant Human HGF …); assay: ELONA; high binding; 3' polyA20/biotin-polyT; also SPR FIG. 11; details: tags: C-terminal HIEGRMD linker, human IgG Fc (100-330), 6xHis; R&D Systems; chain copies: 2 (inferred, Fc chimera)
Method: as §1, §2

[8] = molecular target: T1, rec-cMet (Recombinant Human HGF …); assay: ELONA; high binding; Table 2 misnumbers as SEQ 45; also SPR FIG. 11; details: tags: C-terminal HIEGRMD linker, human IgG Fc (100-330), 6xHis; R&D Systems; chain copies: 2 (inferred, Fc chimera)
Method: as §1, §2

Chain of rec-NGFR (Recombinant Human NGF R/TNFRSF16/Fc Chimera) (P08138 29-250, change not shown): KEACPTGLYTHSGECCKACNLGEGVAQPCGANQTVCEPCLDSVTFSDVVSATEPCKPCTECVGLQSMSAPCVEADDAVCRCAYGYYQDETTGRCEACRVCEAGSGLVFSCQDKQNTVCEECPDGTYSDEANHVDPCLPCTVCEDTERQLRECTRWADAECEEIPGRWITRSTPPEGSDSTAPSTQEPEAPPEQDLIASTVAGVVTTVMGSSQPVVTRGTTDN
T1 sequence (P08581 25-307, change not shown, chain 1 of 2): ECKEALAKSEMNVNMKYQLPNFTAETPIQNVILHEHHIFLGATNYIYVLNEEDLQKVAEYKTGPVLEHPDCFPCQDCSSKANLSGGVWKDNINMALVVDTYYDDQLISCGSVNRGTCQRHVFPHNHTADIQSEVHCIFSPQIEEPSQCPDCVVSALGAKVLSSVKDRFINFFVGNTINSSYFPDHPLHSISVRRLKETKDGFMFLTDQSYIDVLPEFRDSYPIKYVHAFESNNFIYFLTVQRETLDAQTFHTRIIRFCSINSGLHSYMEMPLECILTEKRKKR
T1 sequence (P08581 308-932, change not shown, chain 2 of 2): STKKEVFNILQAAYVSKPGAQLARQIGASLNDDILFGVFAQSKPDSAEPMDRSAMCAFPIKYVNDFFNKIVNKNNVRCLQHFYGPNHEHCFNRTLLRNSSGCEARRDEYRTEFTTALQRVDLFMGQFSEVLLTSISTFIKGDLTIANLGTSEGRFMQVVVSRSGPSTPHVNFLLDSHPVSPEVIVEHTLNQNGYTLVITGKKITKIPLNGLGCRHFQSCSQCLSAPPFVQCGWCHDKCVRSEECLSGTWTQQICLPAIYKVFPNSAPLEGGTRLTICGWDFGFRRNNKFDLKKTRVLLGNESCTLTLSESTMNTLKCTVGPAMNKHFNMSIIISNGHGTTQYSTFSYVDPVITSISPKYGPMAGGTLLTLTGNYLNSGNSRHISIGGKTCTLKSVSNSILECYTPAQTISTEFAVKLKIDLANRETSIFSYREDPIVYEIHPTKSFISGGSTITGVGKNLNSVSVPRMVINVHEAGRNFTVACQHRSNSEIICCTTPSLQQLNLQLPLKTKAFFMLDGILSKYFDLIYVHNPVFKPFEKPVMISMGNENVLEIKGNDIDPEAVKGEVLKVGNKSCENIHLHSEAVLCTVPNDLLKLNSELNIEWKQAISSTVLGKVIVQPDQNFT

B1: g7 (ssRNA)
RNA: GGGACGCUCACGUACGCUAACUUGAAGUCAAGGGUAGAGUGACCAUGCAGCUCGUAGACAUCAGUGCCUGGACGUGCAGU
[1]
  binding result: no binding
[2]
  binding result: binds

B2: g8 (ssRNA)
RNA: GGGACGCUCACGUACGCUAAGGGCACUUAAAACCAGACCGUGAUUUGCGGUUGGUCUCGCUCAGUGCCUGGACGUGCAGU
[3]
  binding result: binds
[1]
  binding result: no binding

B3: g9 (ssRNA)
RNA: GGGACGCUCACGUACGCUAAGAUGUCUCAAUUGGUCGUGAUUGUGCUGACCACACGAACCUCAGUGCCUGGACGUGCAGU
[4]
  binding result: binds
[1]
  binding result: no binding

B4: g1 (ssRNA)
RNA: GGGACGCUCACGUACGCUAAACACACUGAGAGUUUGACCAGCUAUUAAAUGGGUCGUGACUCAGUGCCUGGACGUGCAGU
[5]
  binding result: binds
[1]
  binding result: no binding

B5: g38 2'-F (ssRNA)
RNA: GGGACGCUCACGUACGCUAACCAGGAGCAUUAGACCGGGGAAAGAAGGAGUACCGUCUGGUCAGUGCCUGGACGUGCAGU
modifications: 2'-F on all C and U
[6]
  binding result: binds

B6: g5 (ssRNA)
RNA: GGGACGCUCACGUACGCUAAGCCCAACGAACAUUUUGAGUUUCCAGGCAGCUCAUAGACAUCAGUGCCUGGACGUGCAGU
[1]
  binding result: no binding
[7]
  binding result: binds

B7: g6 (ssRNA)
RNA: GGGACGCUCACGUACGCUAAUCCAGGUGUGGCGAGCCACUGUAAGAGUCGCCGUGAGGAUUCAGUGCCUGGACGUGCAGU
[8]
  binding result: binds
[1]
  binding result: no binding
